Article PMC5663475, “SAV1 promotes Hippo kinase activation through antagonizing the PP2A phosphatase STRIPAK” (eLife, 2017)
Positions count from the first letter of the chain named. Numbers in names are those of the source. Non-standard residues stand in square brackets, D forms with d. No end group written: not given here. pT = C[C@@H](OP(=O)(O)O)[C@H](N)C(=O)O

T1: SLMAP FHA (residues 1–140) (human, UniProt Q14BN4 1-140)
T1 construct: SLMAP, human, FHA domain, residues 1-140; also called SLMAP FHA domain; apo-SLMAP FHA; source: E. coli BL21 (DE3)-T1R, purified (glutathione-Sepharose, TEV cleavage, Superdex 75); not shown: GST, N-terminal, cleaved
T1 sequence (looked up): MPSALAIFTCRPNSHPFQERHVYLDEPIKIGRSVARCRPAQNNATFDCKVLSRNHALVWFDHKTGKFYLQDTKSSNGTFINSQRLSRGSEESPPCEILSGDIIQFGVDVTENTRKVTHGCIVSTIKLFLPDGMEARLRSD

T2: SLMAP FHA/R32A (human, UniProt Q14BN4 1-140, R32A)
T2 construct: SLMAP, human, FHA domain, residues 1-140, R32A; also called SLMAP FHA/R32A mutant; source: E. coli BL21 (DE3)-T1R, purified (glutathione-Sepharose, TEV cleavage, Superdex 75); not shown: GST, N-terminal, cleaved
T2 sequence (looked up): T1 sequence (looked up) with R32A

B1: SAV1 E346A: SAV1 SARAH (residues 321–383) mutant (protein)
chain: ILKWELFQLADLDTYQGMLKLLFMKALEQIVKMYEAYRQALLTELENRKQRQQWYAQQHGKNF
modifications: not fully specified (N-terminus); also: 35S-methionine labelled, Myc tag, end not given here
notes: SAV1 SARAH (residues 321–383) mutant
B2: R368A: SAV1 SARAH (residues 321–383) mutant (protein, UniProt Q9H4B6 321-383, looked up, variant R368A)
chain: B1 chain with A26E, R48A
modifications: SARAH domain
notes: as for B1
B3: L361A: SAV1 SARAH (residues 321–383) mutant (protein, UniProt Q9H4B6 321-383, looked up, variant L361A)
chain: B1 chain with A26E, L41A
modifications: SARAH domain
notes: as for B1
B4: I350A: SAV1 SARAH (residues 321–383) mutant (protein, UniProt Q9H4B6 321-383, looked up, variant I350A)
chain: B1 chain with A26E, I30A
modifications: SARAH domain
notes: as for B1
B5: Y357A: SAV1 SARAH (residues 321–383) mutant (protein, UniProt Q9H4B6 321-383, looked up, variant Y357A)
chain: B1 chain with A26E, Y37A
modifications: SARAH domain
notes: as for B1
B6: L365A: SAV1 SARAH (residues 321–383) mutant (protein, UniProt Q9H4B6 321-383, looked up, variant L365A)
chain: B1 chain with A26E, L45A
modifications: SARAH domain
notes: as for B1
B7: pT325-MST2^320-329 (peptide)
peptide: ELDSH[pT]MVKT
notes: MST2, human, linker residues 320-329; source: synthetic peptide
B8: SAV1 ∆N268: SAV1 SARAH alone (protein, UniProt Q9H4B6 269-383, looked up, fragment)
chain: SVPRYDQPPPVTYQPQQTERNQSLLVPANPYHTAEIPDWLQVYARAPVKYDHILKWELFQLADLDTYQGMLKLLFMKELEQIVKMYEAYRQALLTELENRKQRQQWYAQQHGKNF
B9: pT378-MST2^373-382 (peptide)
peptide: EEEDG[pT]MKRN
notes: MST2, human, linker residues 373-382; also called pMST2; source: synthetic peptide
B10: pT378-MST2^371-401 (peptide)
peptide: DEEEEDG[pT]MKRNATSPQVQRPSFMDYFDKQD
notes: MST2, human, linker residues 371-401; source: synthetic peptide
B11: pT336-MST2^331-340 (peptide)
peptide: VESVG[pT]MRAT
notes: MST2, human, linker residues 331-340; source: synthetic peptide

Columns and labels:
[1] = test system: MCF10A cells; assay: Immunoblot of Hippo pathway phosphorylation after latrunculin B treatment; assay type: cell-based, human; conditions: LatB 1 μg/ml, 1 hr
Protocol: 293FT cells (Thermo Scientific, catalogue #R70007; not independently authenticated) were cultured in DMEM supplemented with 10% fetal bovine serum, 2 mM L-glutamine and 1% penicillin/streptomycin. MCF10A cells (ATCC, catalogue #CRL-10317; not independently authenticated) were cultured in DMEM/F12 containing 5% horse serum, 20 ng/ml EGF, 0.5 μg/ml hydrocortisone, 100 ng/ml cholera toxin, 10 μg/ml insulin and 1% penicillin/streptomycin. All cells were incubated at 37°C in a humidified 5% CO2 atmosphere. All cell lines were checked by 4’,6-diamidino-2-phenylindole (DAPI) staining to ascertain that they were free of mycoplasma contamination. Transient transfection of 293FT cells was performed with Lipojet (Signagen). Cells were collected for further experiments after 24 hr. siRNA transfection was performed with Lipofectamine RNAiMAX (Invitrogen, Waltham, MA) according to manufacturer’s instructions. The following siRNAs were synthesized by Dharmacon and used in this study: siSLMAP #1, […]dTdT; siSLMAP #2, […]dTdT; siSTRIP1, […]dTdT.
Rabbit polyclonal MST2 phospho-T336 antibody was raised against the MST2 phospho-peptide with the sequence of ESVGpTMRATC at an on-campus facility. Generation of the MST2 phospho-T378 antibody was described previously ([Ni et al., 2015]). […] For immunoblotting, cell lysates and immunoprecipitates were analyzed by standard immunoblotting. The membranes were scanned and band intensities were quantified by the Odyssey Infrared Imaging System (LI-COR). […] We quantified phospho- and total protein bands in a set of three independent experiments. […] The ratios of normalized phospho-proteins versus normalized total proteins were calculated and plotted. […]

[2] = test system: MST2 SARAH; assay: In vitro pull-down of 35S-labeled SAV1 SARAH by GST-MST2 SARAH; assay type: binding, human; conditions: GST-MST2 SARAH pull-down of in vitro translated 35S-labeled Myc-SAV1 SARAH (residues 321–383), SDS-PAGE, autoradiography
Protocol: To assay the heterodimerization of SARAH domains between MST2 and SAV1, Myc-tagged SAV1 SARAH (residues 321–383) and the corresponding mutants were in vitro translated in reticulocyte lysate in the presence of ^35S-methionine according to the manufacturer’s protocol (Pierce). Purified GST-MST2 SARAH (residues 430–491) fusion protein was bound to glutathione-Sepharose beads and incubated with ^35S-labeled SAV1 SARAH WT and mutants. The beads were washed three times with TBS containing 0.05% (v/v) Tween. The proteins retained on the beads were analyzed by SDS-PAGE followed by autoradiography.

[3] = target: T1, SLMAP FHA (residues 1–140); assay: ITC; MicroCal iTC200, 20 °C; 50 µM protein in the cell titrated with 500 µM phospho-peptide; 20 mM Tris pH 8.0, 50 mM NaCl (5% DMSO for pT325-MST2 320-329); A + B <-> AB model; conditions: both partners purified
[4] = test system: MST2; assay: MST2-SAV1 autophosphorylation (pT180); assay type: biochemical, human; conditions: 2.5 µM MST2-SAV1 complex, dephosphorylated by 0.5 µM PP2A A-C, then 5 µM okadaic acid; 2 mM ATP, anti-pT180 blot; at least two independent experiments
Protocol: For assaying MST2-SAV1 autophosphorylation, 2.5 µM MST2-SAV1-ΔN198 or MST2-SAV1-ΔN268 was dephosphorylated by 0.5 µM PP2A A-C core complex for 30 min at room temperature. Okadaic acid was then added to a final concentration of 5 µM and the reaction mixture was incubated on ice for another 30 min. The reaction mixture was diluted by a ratio of 1:5 at room temperature with a kinase reaction buffer containing 50 mM Tris (pH 7.5), 150 mM NaCl, 5 mM MgCl2, 2 mM ATP, and 1 mM DTT. At different time intervals, autophosphorylation was terminated by adding 2X SDS loading buffer and boiling for 5 min in 100 °C water bath. All samples were separated by SDS-PAGE and blotted by a specific antibody against pT180 of MST2.

[5] = target: MOB1^33-216 (human) (UniProt Q9H8S9); assay: ITC; MicroCal iTC200, 20 °C; 50 µM protein in the cell titrated with 500 µM phospho-peptide; 20 mM Tris pH 8.0, 50 mM NaCl (5% DMSO for pT325-MST2 320-329); A + B <-> AB model
[6] = target: T2, SLMAP FHA/R32A; assay: as above; conditions: both partners purified

Row | Molecule | binding of SAV1 SARAH mutant to MST2 [2] | Kd [3] [nM] | dH [3] [kcal/mol] | also measured
1 | C/C1=C/C(=O)O[C@@H]2C[C@@H](CC[C@H](C)/C=C\CC1)O[C@@](O)([C@@H]1CSC(=O)N1)C2 [LatB, Latrunculin B] | – | – | – | MOB1 T35 phosphorylation [1]: induced; MST1/2 T-loop phosphorylation [1]: induced; downstream phosphorylation of LATS1/2 and YAP [1]: induced
2 | B1 | completely lost the binding to MST2 | – | – | –
3 | B2 | completely lost the binding to MST2 | – | – | –
4 | B3 | completely lost the binding to MST2 | – | – | –
5 | B4 | completely lost the binding to MST2 | – | – | –
6 | B5 | completely lost the binding to MST2 | – | – | –
7 | B6 | completely lost the binding to MST2 | – | – | –
8 | B7 | – | 392 | -10.3 | –
9 | B8 | – | – | – | MST2 activation (T180 autophosphorylation) in vitro [4]: blocked MST2 activation in vitro
10 | B9 | – | 160 | -9 | dH [5]: -4 kcal/mol; Kd [6]: 18.8 µM; dH [6]: -6.7 kcal/mol
11 | B10 | – | 393 | -9.5 | dH [5]: -13.5 kcal/mol
12 | B11 | – | 1140 | -8.2 | –
